US20160151519A1 (JOHN HOPKINS UNIVERSITY, published 2016)

T1: CD66c immunopurified from LS174T colon carcinoma cell lysate (human, UniProt P40199 35-320)
T1 construct: mature; Blot band or adsorbed on microspheres
T1 sequence (looked up): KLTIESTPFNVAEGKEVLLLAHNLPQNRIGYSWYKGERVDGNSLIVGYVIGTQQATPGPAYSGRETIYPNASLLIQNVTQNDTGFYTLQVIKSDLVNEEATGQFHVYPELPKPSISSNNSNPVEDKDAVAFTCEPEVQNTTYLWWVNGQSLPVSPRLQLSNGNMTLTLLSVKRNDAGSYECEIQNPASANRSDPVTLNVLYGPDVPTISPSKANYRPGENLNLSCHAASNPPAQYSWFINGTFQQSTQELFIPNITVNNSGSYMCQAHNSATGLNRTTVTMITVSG

T2: P-selectin on CHO cells stably transfected with the phosphatidylinositol glycan-linked extracellular domain … (UniProt P16109 42-771, limits assumed, phosphatidylinositol glycan-linked)
T2 construct: extracellular domain; also called P-selectin-expressing CHO cells
T2 sequence (looked up): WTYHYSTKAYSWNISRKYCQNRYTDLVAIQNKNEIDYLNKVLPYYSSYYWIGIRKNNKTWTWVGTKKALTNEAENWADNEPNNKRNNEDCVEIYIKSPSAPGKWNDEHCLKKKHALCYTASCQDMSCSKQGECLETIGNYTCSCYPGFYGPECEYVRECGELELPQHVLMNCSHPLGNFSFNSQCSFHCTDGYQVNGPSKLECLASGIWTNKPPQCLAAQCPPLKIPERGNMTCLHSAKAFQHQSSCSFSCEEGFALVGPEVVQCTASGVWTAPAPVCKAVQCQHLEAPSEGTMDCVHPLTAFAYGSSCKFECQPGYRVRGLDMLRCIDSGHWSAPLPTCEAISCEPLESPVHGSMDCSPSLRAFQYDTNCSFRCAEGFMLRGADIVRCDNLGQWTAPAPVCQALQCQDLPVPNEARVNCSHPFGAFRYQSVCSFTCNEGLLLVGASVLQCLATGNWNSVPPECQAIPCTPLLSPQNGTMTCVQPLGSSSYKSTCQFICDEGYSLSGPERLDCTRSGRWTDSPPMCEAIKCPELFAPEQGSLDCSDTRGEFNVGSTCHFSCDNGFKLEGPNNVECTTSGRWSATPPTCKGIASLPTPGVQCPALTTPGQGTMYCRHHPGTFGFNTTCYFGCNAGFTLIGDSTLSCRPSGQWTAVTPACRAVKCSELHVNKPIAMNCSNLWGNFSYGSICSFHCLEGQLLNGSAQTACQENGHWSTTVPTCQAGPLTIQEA

B1: L-selectin on human peripheral blood lymphocytes (receptor, UniProt P14151 39-372, looked up)
chain: WTYHYSEKPMNWQRARRFCRDNYTDLVAIQNKAEIEYLEKTLPFSRSYYWIGIRKIGGIWTWVGTNKSLTEEAENWGDGEPNNKKNKEDCVEIYIKRNKDAGKWNDDACHKLKAALCYTASCQPWSCSGHGECVEIINNYTCNCDVGYYGPQCQFVIQCEPLEAPELGTMDCTHPLGNFSFSSQCAFSCSEGTNLTGIEETTCGPFGNWSSPEPTCQVIQCEPLSAPDLGIMNCSHPLASFSFTSACTFICSEGTELIGKKKTICESSGIWSNPSPICQKLDKSFSMIKEGDYNPLFIPVAVMVTAFSGLAFIIWLARRLKKGKKSKRSMNDPY
notes: whole, on cells; also called Lymphocyte (L-selectin); L-selectin-expressing human peripheral blood lymphocytes
B2: E-selectin-IgG Fc chimera (Fc fusion, human, UniProt P16581 22-301, looked up)
chain: WSYNTSTEAMTYDEASAYCQQRYTHLVAIQNKEEIEYLNSILSYSPSYYWIGIRKVNNVWVWVGTQKPLTEEAKNWAPGEPNNRQKDEDCVEIYIKREKDVGMWNDERCSKKKLALCYTAACTNTSCSGHGECVETINNYTCKCDPGFSGLKCEQIVNCTALESPEHGSLVCSHPLGNFSYNSSCSISCDRGYLPSSMETMQCMSSGEWSAPIPACNVVECDAVTNPANGFVECFQNPGSFPWNTTCTFDCEEGFELMGAQSLQCTSSGNWDNEKPTCKA
notes: domain: lectin, epidermal growth factor and consensus repeat domains; From Wyeth External Research; immobilised on dishes (10 µg/ml for microbeads, 0.75 µg/ml for cells); also called chimeric form of E-selectin-IgG Fc; not shown: human IgG1 (printed 'IgGi'); selectin domains linked to each arm of the IgG
B3: P-selectin-IgG Fc chimera (Fc fusion, human, UniProt P16109 42-321, looked up)
chain: WTYHYSTKAYSWNISRKYCQNRYTDLVAIQNKNEIDYLNKVLPYYSSYYWIGIRKNNKTWTWVGTKKALTNEAENWADNEPNNKRNNEDCVEIYIKSPSAPGKWNDEHCLKKKHALCYTASCQDMSCSKQGECLETIGNYTCSCYPGFYGPECEYVRECGELELPQHVLMNCSHPLGNFSFNSQCSFHCTDGYQVNGPSKLECLASGIWTNKPPQCLAAQCPPLKIPERGNMTCLHSAKAFQHQSSCSFSCEEGFALVGPEVVQCTASGVWTAPAPVCKA
notes: domain: lectin, epidermal growth factor and consensus repeat domains; From Wyeth External Research; immobilised on dishes; also called chimeric form of P-selectin-IgG Fc; not shown: human IgG1 (printed 'IgGi'); selectin domains linked to each arm of the IgG
B4: carcinoembryonic antigen (CEA) immunopurified from LS174T colon carcinoma cell lysate (ligand, human, UniProt P06731 35-685, looked up)
chain: KLTIESTPFNVAEGKEVLLLVHNLPQHLFGYSWYKGERVDGNRQIIGYVIGTQQATPGPAYSGREIIYPNASLLIQNIIQNDTGFYTLHVIKSDLVNEEATGQFRVYPELPKPSISSNNSKPVEDKDAVAFTCEPETQDATYLWWVNNQSLPVSPRLQLSNGNRTLTLFNVTRNDTASYKCETQNPVSARRSDSVILNVLYGPDAPTISPLNTSYRSGENLNLSCHAASNPPAQYSWFVNGTFQQSTQELFIPNITVNNSGSYTCQAHNSDTGLNRTTVTTITVYAEPPKPFITSNNSNPVEDEDAVALTCEPEIQNTTYLWWVNNQSLPVSPRLQLSNDNRTLTLLSVTRNDVGPYECGIQNELSVDHSDPVILNVLYGPDDPTISPSYTYYRPGVNLSLSCHAASNPPAQYSWLIDGNIQQHTQELFISNITEKNSGLYTCQANNSASGHSRTTVKTITVSAELPKPSISSNNSKPVEDKDAVAFTCEPEAQNTTYLWWVNGQSLPVSPRLQLSNGNRTLTLFNVTRNDARAYVCGIQNSVSANRSDPVTLDVLYGPDTPIISPPDSSYLSGANLNLSCHSASNPSPQYSWRINGIPQQHTQVLFIAKITPNNNGTYACFVSNLATGRNNSIVKSITVSASGTSPGLSA
modifications: sialofucosylated (HECA-452-reactive) O-linked glycans
notes: mature; One entry for CEA from wild-type and from CD44-knockdown LS174T cells; Used as blot band or adsorbed on microspheres; also called CD66e; CEACAM5

What was measured:
[1] = target: E-selectin-IgG Fc chimera (human) (UniProt P16581); experiment: flow-based adhesion assay, sialidase-treated against untreated PCLP-coated microbeads on 10 µg/ml E-selectin at 1 dyn/cm2
[2] = target: B4; experiment: blot rolling assay with human peripheral blood lymphocytes at 0.5 dyn/cm2
Description: FIGS. 6A-6B provides the Western blot results from CD66e experiments. […] B: Selectin-dependent adhesion to SDS-PAGE resolved and blotted CEA immunoprecipitated from CD44-knockdown LS174T whole cell lysate. CHO-E cells, lymphocytes or CHO-P cells were perfused at the wall shear stress level of 0.5 dyn/cm² over SDS-PAGE immunoblots of immunopurified CD66e from whole cell lysate of CD44-knockdown LSI 74T cells. In select experiments, CHO-E cells and lymphocytes were pre-treated with an anti-E-selectin or an anti-L-selectin function blocking mAb (20 μg/ml), respectively, before use in blot rolling assays. The saturating concentration of the mAb (20 μg/ml) was maintained in the perfusion assays. Data represent the mean±S.E. of n≧3 experiments.
(§1) Fuhlbrigge et al., I 68 J. IMMUNOL. 5645-5651 (2002). The blots were placed under a parallel-plate flow chamber, and human peripheral blood lymphocytes or CHO transfectants, re-suspended at 5×10⁶ cells/ml in 90% D-PBS/I 0% glycerol, were perfused at the shear stress of 0.5 dyn/cm². Hanley et al., 20 FASEB J. 337-339 (2006); Napier et al., 282 J. BIOL. CHEM. 3433-3441 (2007); and Thomas et al., 283 J BIOL CHEM 15647-15655 (2008). Molecular weight markers were used as guides to aid placement of the flow chamber over stained bands of interest. […] Non-specific adhesion was assessed by perfusing 5 mM EDTA in the flow medium.

[3] = target: T1, CD66c immunopurified from LS174T colon …; experiment: cell-free flow-based adhesion assay, CD66c-coated microspheres
[4] = target: B4; experiment: cell-free flow-based adhesion assay, CEA-coated microspheres
Description: A cell-free flow-based adhesion assay (Hanley, et al., 20(2) FASEB J. 20(2), 337-339 (2006); Napier, et al., 282(6) J. BIOL. CHEM. 3433-3441 (2007)) was used to compare the adhesion of microspheres coated with CEA immunopurified from wildtype versus CD44-knockdown LS174T colon carcinoma cells to selectin substrates in shear flow. This technique allows quantitative comparisons of CEA-mediated adhesion to selectin substrates at prescribed CEA and selectin site densities under physiological flow conditions.
To test this hypothesis, the CEA-coated microspheres were perfused over purified selectin substrates under prescribed wall shear stress levels. As expected from blot rolling assays, microspheres coated with CEA from either cell type were capable of tethering and rolling over E- and L-, but not P-, selectin substrates, albeit with varying efficiencies (FIG. 8C-E). Most importantly, the extent of tethering of CD44-knockdown LS174T CEA-coated microspheres to E-selectin was lower than that of microspheres decorated with CEA from wildtype LS174T cells (FIG. 8C). […] In contrast, no difference was detected in either the extent of tethering (FIG. 8C) or the average rolling velocities (FIG. 8E) of microspheres coated with CEA from either cell type over L-selectin.

[5] = target: T2, P-selectin on CHO cells stably …; experiment: blot rolling assay: CHO-P cells perfused at 0.5 dyn/cm2 over blot of immunopurified CEA
Protocol: In select experiments, CHO-E cells and lymphocytes were pre-treated with an anti-E-selectin or an anti-L-selectin function blocking mAb (20 μg/ml), respectively, before use in blot rolling assays. The saturating concentration of the mAb (20 μg/ml) was maintained in the perfusion assays. Data represent the mean±S.E. of n≧3 experiments.
as §1, with “CHEM.” for “CHEM. 3433-3441 (2007); and Thomas et al., 283 J BIOL CHEM 15647-15655 (2008). Molecular weight markers were used as guides to aid placement of the flow chamber over stained bands of interest.”
Although previous studies have reported that CEA and CEA-family members such as CD66c (Kuijpers, et al., 118(2) J CELL BIOL. 457-466 (1992)) bind E-selectin under static/no-flow conditions, the capacity of CEA to interact with E-selectin under physiologically relevant flow conditions as well as its potential cross-reactivity with L- and P-selectin have yet to be examined. […] The specificity of these adhesive interactions was assessed by incubating CHO-E cell suspensions or lymphocytes with an anti-E-selectin or an anti-L-selectin function-blocking mAb, respectively (FIG. 6B).

Molecule: podocalyxin-like protein (PCLP) immunopurified from LS174T colon carcinoma cell lysate (from UniProt O00592 23-558) (ligand)
- reduction of binding after sialidase treatment [1]: 80%

Molecule: B1
- binding result [2]: binds

Molecule: B2
- binding result [3]: no binding

Molecule: B3
- binding result [4]: no binding (tested: 10 µg/ml P-selectin coating)

Molecule: B4
- binding result [5]: no binding
